Reference: patent US20050090643A1

These binders were tested against viral envelope glycoprotein gp120 of human immunodeficiency virus (HIV-1) (HIV-1) (assay: cell-based or functional assay).

Row | Binder | IC50 in quantitative vaccinia virus-based HIV-1 fusion assay | average KD from non-linear least squares best fitting of HIV-1 fusion assay titration data to a two-independent site model
1 | CVN Gln50 deletion mutant (ΔQ50-CVN), obligate domain-swapped dimer of cyanovirin (protein) LGKFSQTCYNSAIQGSVLTSTCERTNGGYNTSSIDLNSVIENVDGSLKWPSNFIETCRNTQLAGSSELAAECKTRAQQFVSTKINLDDHIANIDGTLKYE | 9 nM | 22 nM
2 | dimeric wild-type CVN (protein) LGKFSQTCYNSAIQGSVLTSTCERTNGGYNTSSIDLNSVIENVDGSLKWQPSNFIETCRNTQLAGSSELAAECKTRAQQFVSTKINLDDHIANIDGTLKYE | 9 nM | 21 nM
3 | monomeric wild-type CVN (protein) LGKFSQTCYNSAIQGSVLTSTCERTNGGYNTSSIDLNSVIENVDGSLKWQPSNFIETCRNTQLAGSSELAAECKTRAQQFVSTKINLDDHIANIDGTLKYE | 32 nM | 67 nM
